Where two headings read alike, the source gives them in different places.
Key:
[1] = target: T1, IL-2Rβ IH-Biotin (Homo sapiens (Human), UniProt P14784 27-240, biotin on the avi tag (enzymatic labeling with His-BirA)); experiment: BLI (Octet Red96): biotinylated receptor on SA sensor, 100 nM Fc fusion in solution, 1:1 model
T1 construct: also called IL-2Rβ IH (in house); CD122
T1 sequence: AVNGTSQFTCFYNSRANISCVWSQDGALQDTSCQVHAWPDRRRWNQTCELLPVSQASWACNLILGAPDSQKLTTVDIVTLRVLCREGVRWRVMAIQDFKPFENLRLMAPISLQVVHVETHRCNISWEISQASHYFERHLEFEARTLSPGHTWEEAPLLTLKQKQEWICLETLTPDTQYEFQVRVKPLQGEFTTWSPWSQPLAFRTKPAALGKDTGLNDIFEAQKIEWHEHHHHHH
Experimental: A BLI affinity assay was performed according to the prior art (Estep, P, et al., High throughput solution based measurement of antibody-antigen affinity and epitope binning. MAbs, 2013.5(2): p. 270-8). […] Kinetic analysis was performed on the assay results using a 1:1 binding model.

[2] = target: T2, IL-2Rα (CD25) on primary human CD8^+ CD25^+ T cells (human, UniProt P01589 22-272); experiment: cell-based or functional assay
T2 sequence (looked up): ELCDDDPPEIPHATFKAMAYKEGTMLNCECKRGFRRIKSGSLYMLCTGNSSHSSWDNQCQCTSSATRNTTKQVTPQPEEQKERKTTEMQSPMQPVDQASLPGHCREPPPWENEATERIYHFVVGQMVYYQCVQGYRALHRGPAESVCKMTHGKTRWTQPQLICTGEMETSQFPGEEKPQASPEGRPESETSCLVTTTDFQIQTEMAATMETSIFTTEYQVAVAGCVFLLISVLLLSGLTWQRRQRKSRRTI

[3] = target: T3, IL-2Rα-Biotin (Homo sapiens (Human), UniProt P01589 22-217, biotin on the avi tag (enzymatic labeling with His-BirA)); experiment: BLI (Octet Red96): biotinylated receptor on SA sensor, 100 nM Fc fusion in solution
T3 construct: also called CD25; IL-2Rα receptor
T3 sequence: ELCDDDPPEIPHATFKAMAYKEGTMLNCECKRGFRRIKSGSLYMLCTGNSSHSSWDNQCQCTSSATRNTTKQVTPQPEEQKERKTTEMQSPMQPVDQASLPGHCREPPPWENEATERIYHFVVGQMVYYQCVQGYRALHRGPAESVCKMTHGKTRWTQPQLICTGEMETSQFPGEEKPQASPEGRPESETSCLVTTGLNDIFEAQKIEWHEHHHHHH

[4] = target: T2, IL-2Rα (CD25) on primary human CD8^+ …; experiment: cell-based or functional assay; remark: listed apart in the source
[5] = target: T3, IL-2Rα-Biotin; experiment: flow cytometry: yeast-displayed IL-2 stained with 50 nM IL-2Rα-Biotin
Experimental: (§1) 1. 1×10⁶ cells from each sample were centrifuged to discard the supernatant, and washed with FACS buffer once for later use; [0133] 2. the cells were added to 100 μL of FACS buffer containing 50 nM IL-2Rα-Biotin and Anti Flag antibody, and incubated at room temperature for 30 min; [0134] 3. the mixture was centrifuged at 3000 rpm, 4° C. for 3 min, and washed with pre-cooled FACS buffer twice; [0135] 4. 100 μL of FACS buffer containing SA-PE and goat anti-mouse conjugated with Alex Flour-647 was added, and the mixture was incubated on ice for 20 min away from light; [0136] 5. after being washed twice with pre-cooled FACS buffer, the cells were resuspended in 100 μL of buffer, and the binding level of IL-2^mutant to IL-2Rα was assayed by a flow cytometer (BD, ACCURI C6). […] 1. […] 2. the cells were added to 100 μL of FACS buffer containing IL-2Rβ IH-Biotin (30 nM-100 nM) and Anti Flag antibody, and incubated at room temperature for 30 min; [0139] 3. following steps 3-5 described above, the binding level of IL-2^mutant to IL-2Rβ was assayed.

[6] = target: T1, IL-2Rβ IH-Biotin; experiment: flow cytometry: yeast-displayed IL-2 stained with IL-2Rβ IH-Biotin (30 nM-100 nM)
Experimental: as §1

B1: IL-2^3X-FC fusion protein (Fc fusion, not shown: small tags and cut ends; a dimerising Fc or GST)
chain: APTSSSTKKTQLQLEHLLLDLQMILNGINNYKNPKLTDMLTFEFYMPKKATELKHLQCLERELKPLEEVLNLAQSKNFHLRPRDLISNINVIVLELKGSETTFMCEYADETATIVEFLNRWITFSQSIISTLT
B1 was tested, and the Kd [1] was 16 nM, the “EC50 (read off the curve) of p-STAT5 activation” value [2] was about 6 nM and the binding result [3] was “no binding (tested: 100 nM)”. For the same binder, the “EC50 (read off the curve) of p-STAT5 activation” value [4] was about 7 nM.

B2: IL-2^3x displayed on the surface of yeasts (ligand, not shown: small tags and cut ends)
chain: APTSSSTKKTQLQLEHLLLDLQMILNGINNYKNPKLTDMLTFEFYMPKKATELKHLQCLERELKPLEEVLNLAQSKNFHLRPRDLISNINVIVLELKGSETTFMCEYADETATIVEFLNRWITFSQSIISTLT
notes: Control on yeast cells
B2: no binding (tested: 50 nM) [5].

B3: IL-2^H9 displayed on the surface of yeasts (ligand, not shown: small tags and cut ends)
chain: APTSSSTKKTQLQLEHLLLDLQMILNGINNYKNPKLTRMLTFKFYMPKKATELKHLQCLEEELKPLEEVLNLAQSKNFHFDPRDVVSNINVFVLELKGSETTFMCEYADETATIVEFLNRWITFSQSIISTLT
notes: Control on yeast cells
B3: binds [6].

Reference: patent US20210221863A1 (Innovent, published 2021)
